Results reported in US5502166, “NMDH receptor proteins and genes encoding the same” (Mitsubishi Chemical Corporation, dated 1996).

Molecular target: ζ1 NMDA type glutamate receptor subunit (mouse, wild type) (mouse, UniProt P35438)
Experiment: cell-based or functional assay

- inward current at a membrane potential of -70 mV, Xenopus oocytes, 10 µM L-glutamate and 10 µM glycine, frog standard Ringer's solution: 191 nA
B1: glutamate receptor ε3 subunit (mouse NMDA type glutamate receptor channel subunit) (receptor)
chain: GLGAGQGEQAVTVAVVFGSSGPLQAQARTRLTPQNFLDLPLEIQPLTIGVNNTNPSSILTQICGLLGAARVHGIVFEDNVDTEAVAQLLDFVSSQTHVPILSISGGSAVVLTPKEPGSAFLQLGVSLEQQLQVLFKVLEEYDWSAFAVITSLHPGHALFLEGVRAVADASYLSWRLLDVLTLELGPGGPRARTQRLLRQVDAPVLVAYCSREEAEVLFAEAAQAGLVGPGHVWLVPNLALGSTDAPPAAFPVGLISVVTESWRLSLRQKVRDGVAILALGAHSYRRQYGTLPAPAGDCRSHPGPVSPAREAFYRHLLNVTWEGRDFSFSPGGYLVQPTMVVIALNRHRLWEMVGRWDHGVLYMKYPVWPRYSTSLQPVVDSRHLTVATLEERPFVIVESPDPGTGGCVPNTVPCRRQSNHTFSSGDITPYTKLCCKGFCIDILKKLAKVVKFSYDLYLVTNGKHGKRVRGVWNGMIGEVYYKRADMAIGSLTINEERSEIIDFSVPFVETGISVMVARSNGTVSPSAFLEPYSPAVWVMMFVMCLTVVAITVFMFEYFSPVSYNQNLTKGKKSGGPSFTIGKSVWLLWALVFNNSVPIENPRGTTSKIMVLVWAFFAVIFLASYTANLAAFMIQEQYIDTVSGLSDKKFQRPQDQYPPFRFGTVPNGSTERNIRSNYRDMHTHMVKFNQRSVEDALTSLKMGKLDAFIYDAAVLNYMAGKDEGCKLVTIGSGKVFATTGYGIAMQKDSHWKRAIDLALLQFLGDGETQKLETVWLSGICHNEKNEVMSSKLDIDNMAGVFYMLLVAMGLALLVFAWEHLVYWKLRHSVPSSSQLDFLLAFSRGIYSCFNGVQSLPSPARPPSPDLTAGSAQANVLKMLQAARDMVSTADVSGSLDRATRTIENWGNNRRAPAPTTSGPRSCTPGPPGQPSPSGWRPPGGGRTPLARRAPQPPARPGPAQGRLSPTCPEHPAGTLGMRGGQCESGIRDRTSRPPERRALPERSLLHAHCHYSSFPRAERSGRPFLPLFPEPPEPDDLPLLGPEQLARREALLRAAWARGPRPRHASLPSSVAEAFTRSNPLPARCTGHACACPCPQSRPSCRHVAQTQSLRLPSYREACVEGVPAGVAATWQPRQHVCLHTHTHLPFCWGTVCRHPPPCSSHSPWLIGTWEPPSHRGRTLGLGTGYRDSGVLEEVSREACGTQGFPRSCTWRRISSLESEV
